Results from paper PMC4137108.

Assays:
[1] = biological target: Apaf-1 (human (endogenous in HeLa)) (UniProt O14727)
[2] = biological target: Apaf-1 (human (endogenous in HeLa)) (UniProt O14727); remark: listed apart in the source

UniProt O14727, sequence (O14727 whole entry): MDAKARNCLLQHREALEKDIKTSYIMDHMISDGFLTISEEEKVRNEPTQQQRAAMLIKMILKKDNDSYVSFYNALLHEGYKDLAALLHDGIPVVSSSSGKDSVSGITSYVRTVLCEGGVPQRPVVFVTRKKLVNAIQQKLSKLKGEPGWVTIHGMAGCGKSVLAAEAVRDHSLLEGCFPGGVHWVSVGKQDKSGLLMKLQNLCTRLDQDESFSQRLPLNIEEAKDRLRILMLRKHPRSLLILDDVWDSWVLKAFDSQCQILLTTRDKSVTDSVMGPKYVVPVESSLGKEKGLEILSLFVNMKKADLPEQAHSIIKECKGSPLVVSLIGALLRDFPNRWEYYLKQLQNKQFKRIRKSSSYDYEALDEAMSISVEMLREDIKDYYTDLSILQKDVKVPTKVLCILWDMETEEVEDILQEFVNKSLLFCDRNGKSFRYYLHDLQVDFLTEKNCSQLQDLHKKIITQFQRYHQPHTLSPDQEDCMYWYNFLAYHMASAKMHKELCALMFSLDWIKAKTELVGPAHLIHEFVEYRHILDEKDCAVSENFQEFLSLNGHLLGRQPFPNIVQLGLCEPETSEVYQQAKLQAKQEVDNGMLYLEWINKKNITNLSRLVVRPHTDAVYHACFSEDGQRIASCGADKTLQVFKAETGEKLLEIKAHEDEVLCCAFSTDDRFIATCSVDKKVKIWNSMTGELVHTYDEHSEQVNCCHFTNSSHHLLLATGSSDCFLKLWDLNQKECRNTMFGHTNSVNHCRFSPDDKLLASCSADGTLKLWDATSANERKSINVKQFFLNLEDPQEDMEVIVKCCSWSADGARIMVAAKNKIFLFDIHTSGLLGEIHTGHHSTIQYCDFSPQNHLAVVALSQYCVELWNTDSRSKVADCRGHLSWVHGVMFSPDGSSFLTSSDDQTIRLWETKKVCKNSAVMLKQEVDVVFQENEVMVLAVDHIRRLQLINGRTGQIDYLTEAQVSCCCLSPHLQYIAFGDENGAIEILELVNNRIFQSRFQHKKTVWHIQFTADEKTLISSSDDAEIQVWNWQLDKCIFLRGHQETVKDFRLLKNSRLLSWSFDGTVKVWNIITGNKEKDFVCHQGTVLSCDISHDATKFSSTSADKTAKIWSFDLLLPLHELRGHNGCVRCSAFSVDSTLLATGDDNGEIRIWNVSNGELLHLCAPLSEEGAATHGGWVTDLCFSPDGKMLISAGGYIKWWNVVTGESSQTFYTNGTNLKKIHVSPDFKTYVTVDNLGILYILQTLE

cell-free caspase 3 activation in HeLa cytosol (DEVD-pNA), relative to non-modified Cyt c (the reference itself) [1]: 100%
cell-free caspase 9 activation in HeLa cytosol (LEHD-pNA), relative to non-modified Cyt c (the reference itself) [1]: 100%
relative caspase 3 activation in a cell-free system after precipitation of Cyt c with acetone (water-organic solvent interface) [2]: 51%
relative caspase 3 activation in a cell-free system after precipitation of Cyt c with acetonitrile (water-organic solvent interface) [2]: 64%
Substance: Cytochrome c from equine heart (from UniProt P00004 1-105) (natural protein)
